The results in this text go back to PMC3505484.

In the test the target is IL-1 receptor on human melanoma A375.S2 cells (human (endogenous in A375.S2)) (UniProt P14778).
Sequence of UniProt P14778 (P14778 18-569): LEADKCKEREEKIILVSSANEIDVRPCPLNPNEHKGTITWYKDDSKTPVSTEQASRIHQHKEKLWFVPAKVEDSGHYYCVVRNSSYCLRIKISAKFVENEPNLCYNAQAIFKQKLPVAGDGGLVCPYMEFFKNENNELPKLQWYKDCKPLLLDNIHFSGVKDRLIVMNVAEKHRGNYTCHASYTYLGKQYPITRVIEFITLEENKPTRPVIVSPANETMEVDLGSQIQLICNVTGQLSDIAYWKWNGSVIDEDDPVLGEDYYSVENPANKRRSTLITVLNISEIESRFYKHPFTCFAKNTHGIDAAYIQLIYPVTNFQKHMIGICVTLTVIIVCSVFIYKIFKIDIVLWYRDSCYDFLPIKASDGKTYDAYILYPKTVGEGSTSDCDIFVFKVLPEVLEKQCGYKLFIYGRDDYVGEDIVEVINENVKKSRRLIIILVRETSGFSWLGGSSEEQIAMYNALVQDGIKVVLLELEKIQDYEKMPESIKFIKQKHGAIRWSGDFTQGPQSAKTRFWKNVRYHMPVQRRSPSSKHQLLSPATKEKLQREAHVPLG

As for “IL-1ra-HSA fusion protein (human serum albumin fused to the carboxyl terminal of human IL-1ra) (from UniProt P02768 25-609)”, the input giving the 50% level of inhibition of the cytolytic activity of 1 ng/ml (0.06 nM) IL-1β to A375.S2 cells (MTT, 72 h); the pair blocked is IL-1β and the IL-1 receptor came out at 2 nM; the input giving the 100% level of inhibition of the cytolytic activity of 1 ng/ml (0.06 nM) IL-1β to A375.S2 cells (MTT, 72 h); the pair blocked is IL-1β and the IL-1 receptor was 32 nM.
